Experimental data taken from the DeepSol protein solubility set.

experiment: soluble on expression in E. coli; label from the status in PepcDB or PDB records

Row | Sequence | soluble on expression in E. coli
1 | MGSDKIHHHHHHMKFPRIGLPKEKVIELINEKTKKDLTFSSGKILGSMCTMPHDLAIEVYTKYIDRNLGDPGLHPGTRKIEEEVIEMISDLLHLEKGHGHIVSGGTEANILAVRAFRNLSDVEKPELILPKSAHFSFIKAGEMLGVKLVWAELNPDYTVDVRDVEAKISDNTIGIVGIAGTTGLGVVDDIPALSDLARDYGIPLHVDAAFGGFVIPFAKELGYELPDFDFKLKGVQSITIDPHKMGMAPIPAGGIVFRRKKYLKAISVLAPYLAGGKVWQATITGTRPGASVIAVWALIKHLGFEGYMRIVERAMKLSRWFAEEIKKINNAWLVREPMLNIVSFQTKNLKKVERELKSRGWGISAHRGYIRIVFMPHVTREMIEEFLKDLKEVLS | not soluble
2 | MNEKELADSVFGGLMAKAMGKMVHESEICPLVDQIEGKGQTNEELQGLRLSLSDLLLRHPDKFINCGNRNWRLNQNNHAFQQLAESISDKKSGKGGKRSARGGSNLPSFNRARSGGIPRNHNQTHGFRQSAPAHRGHHRPPAGNHGSSFRPNLNISQPNPSNDYSKMTGLHYPVSRNVLASNNGSNSRFSNQPPRREDHHEKMIMRTPYRDPSPRRGNNYGDIRGRPDSRDGYNGDRDSTRYSSPRRNEQPGRPSSRGSNISDYSQFSSDTNAESNTERRSRPDASSPDLADLARRFNSSSINVQPQPLESVASSDVLSKKIAKAVRKIMKKLNEGEKLSLENLFDEIERKNKILIPGKNGKEKEDFLKDLKKIMPKLLSALTIDTETGDLTWNEAAVTTDSPIHEYMEDDLHYYVVDYVKMLDKARFRVTDEAERLSNATGVRMERTCEKLTYVLFITFEGEYRYASGSKTEVLKISKITTVGDAPEFYQTSFEHKIFENVPANALVKCGIVRYQNVQKFAVRPEEYIKPYEKMNQEIQDFMSQIRNEKSVPFEMWRPNHACLVQLNDSTTILKWSRAMIIKIETQLIFLFILDSGFRKVVPSSDLRLMPQKFAKLPPFAIPCTLDESEDDKDNIEFGGKEYLSNGPGNLSVTCSGAATASDGILTYPIKLFSTCHGGPLTNIKDVFI | not soluble
3 | SLDPSKVTSMSAVEFTPLPTCLQHRSCDACMSSDLTFNCSWCHVLQRCSSGFDRYRQEWMDYGCAQEAEGRMCEDFQD | soluble
4 | MIAMIVKGGLAMAISNGHVSFKRPAWLGDSITANNGLATVHYHDILAADWDVERSDNLGISGSTIGSRYDAMAVRYQAIPEDADFIAVFGGVNDYGRDQPLGQYGDCDMTTFYGALMMLLTGLQTNWPTVPKLFISAIHIGSDFGGSFSAVTNGLGYRQSDYEAAIAQMTADYGVPHLSLYRDAGMTFAIPAQAAIYSVDTLHPNNAGHRVIARKLQSFLDSHFLEHHHHHH | soluble
5 | MLSPEQDLNRHADPFPFNEEPSSQDLDSLRDLVTEAETLQDMVTGGLSIDAILNVLDATGEDETIWPVEKTPPDILHLLSPEYAPETAHNTVLPDLTRKEHRIIGIDSHYRINPAQHGEIYHDKQ | not soluble
6 | MANAYKQAGVDIEAGYEAVSRMKKHVQTTMRKEVLGGLGGFGGMFDLSKFALEEPVLVSGTDGVGTKLMLAFMADKHDTIGIDAVAMCVNDIVVQGAEPLFFLDYIACGKAEPSKIENIVKGISEGCRQAGCALIGGETAEMPGMYSTEEYDLAGFTVGIVDKKKIVTGEKIEAGHVLIGLASSGIHSNGYSLVRKVLLEDGELSLDRIYGRLELPLGEELLKPTKIYVKPILELLKNHEVYGMAHITGGGFIENIPRMLPEGIGAEIELGSWKIQPIFSLLQEVGKLEEKEMFNIFNMGIGMVVAVKEEDAKDIVRLLEEQGETARIIGRTVQGAGVTFNGGKAL | soluble
7 | MSILQKLENSAAAAVKALYGTDPMEGQIQLQKTKREFKGHLTLVVFPFVKMSRKSPEATATEIGEWLLANESAVSAIEVVKGFLNLTIAPRVWLELLNEIRADINFGHKVATEDSPLVMVEYSSPNTNKPLHLGHVRNNLLGYSLSEIMKANGYRVVKTNIVNDRGIHICKSMLAWQKWGDGVTPEKAGKKGDHLIGDFYVLFDKHYKAELNSLMAEGKSKEEAEAASTLMAEAREMLRLWEAGDEKVVDLWRTMNQWVYDGFDATYKMMGVDFDKIYYESETYLVGKEEVLRGLEEGLFVKHSDGSVWADLTKDGLDEKLLLRADGTSVYMTQDIGTAKMRFNDYPINRMIYVVGNEQNYHFQVLSILLDRLGFEFGKGLVHFSYGMVELPEGKMKSREGTVVDADDLMDEMIRTAAEIAAEAGKAAEMDEEESREVARIVGLGSLKYFILKVDPRKNMTFNPKESIDFNGNTGSFVQYTYARIRSLMRRAEAAGYDIPSQLPTDLPLSEKEEALIQKVSEYAEVVSEAGHSYSPALIANYIYDLVKEYNQFYHDFSVLKEEDERIRAFRLALSEVVALTMRKGFALLGIEMPERM | not soluble
8 | GPGSMTSKKAAKEKDEYTPQERLTAAALEYKKLEGHNQSSIERMYGALSSPFRVSNKPCEVPRAAVLRCFEEILGKTNNGENGSTDNLAETTVVGRSISGGNNADGRVLLSSDSRFPSVHRCYDAVLQYESCVVEKTLAQHHSLLAGFEARQLQEAESANEVPKAVASGA | not soluble
9 | MSEYNPCLDCGACCGYFRVSFFWGECQSAGGVVPDDLVVQINPTRVAMIGTDAKPCRCVSLQGEIGKEVACTIYANRSSPCREFDASWEGGVHNPSCDDARAAYGLPPLTPPEANEPHWPDDGAEVALEHHHHHH | soluble
10 | MAYNSNSNNNNNNIVVVFDFDKTIIDVDSDNWVIDELGFTDLFNQLLPTMPWNTLMDRMMKELHDQGKTIEEIKQVLRTIPIHPRVVPAIKSAHDLGCELRIVSDANMFFIETIVEHLGISELFSEINSNPGYVDERGTLKISPYHDFTKSPHSCSCGTCPPNMCKGLIIERIQQSLAKEGKKKMIYLGDGAGDYCPSLKLNTEDYVMPRKNFPVWDLISQNPMLIKAAIREWTDGQSMEMILIGTIEEIRLEEEKEKMLTSAENNCKMQTISIGINNVHHEPILPRALRVSQSS | soluble
11 | MLYDLAKQRKTVRKFKEEKPSIEKLMYCLKVANEAPSGMNAQPWRFLVVKDEETKRQIRETCEKAEKDFYENVRGKLKEWLNENSFNWKKPFLEEAPYLLLVFSKKDAPYSRESVWLAIGYLLLALEEQGLGTVPYTPPNPNELTKIVNTPSDLRFEVILPVGYPDDPKPKYPREEMKVSFNHF | not soluble
12 | MKLDLIQSMLYNNPKPQDTKEGLSDQDFSIYMDAHTVPFSKYPSYMPAGVLGICTEGNAEIQVGLRKYVICANDILIFMPGFLVSFIKSSPTFTIDYCTFSNVLFYDVINGSIKRFPTGFHTYTQTHCVYSLSQEKAEQFSIYFRLLYNRATSPTYLFTKESITNLLKLPFLELYADYYSTVKEHKVTTLHKEEIGYFFLDLLLKHYKENKEVAFYAEKLHVSSKYLTEALTLVSGKSPKEWIIHYTLQEIYALLENPSISIQEIVQRTRFANLATLRRFFKRHTGTSLLQYRKQDLYKNNQ | not soluble
13 | MGSDKIHHHHHHMADFNQYTRWEHQMHGVKLPRWDDLPKFDLYMDQVTALINDVLGPLGIDTVTPAMINNYVKHNVIMAPVKKKYQTMQLTDILMISLLKPMFQTDTVRSGIDQITAGDYPKQAYDNFIGQLEDRLHHLGEDQVQPAAQNLNEKLMQVAVDTVVSRLQSEKLLRLIKRPLRKIEKK | not soluble
14 | MAHHHHHHMRNSFFPMLCEKQSTPELEAMPLYLPDTVVLQLHRHDGEAEFADYMDANSLTFVALGDAERPALCGIDATAQLHYEGAQRTLVSAAGIVSGIRRRRLRVPFGMSELSELLRRAYNTEKGNRNNSLTGSTETVLLTHLFSDAVWAEESFHCLSTTRRVGNILGSTGIGSATRDLAVERWRLDQDIMELRDELMIARTVYDYRHCGYESNRSISGMEEEGMKRVNAIQSNREEERKWQLSVFCERAKHEAEKMIKELEQRGGATLDELQKTLEAKKRESSALQADRENRIWEYEHTLEKIRTRKQDEESASERLRQAMQQLEQELSLRQSAIETREQQLEMVQLDGARGREAIMRERHSIEAVSPAEAVDPSD | not soluble
15 | MNDHSQLFRLLALLLDYPRAELREESLGLHALIRTCELPEALRDGLAALLNELCQGDLLDVQARYDGLFERGRSVSLLLFEHVHGESRDRGQAMVDLLDRYTGAGLQIDVPELPDYLPLYLEYLSLLPFAAASEGLAEVAHILGLLALRLEERGSAYAAIFEALLELGGERPDLGALRRDQAQEQRDDSLEAIDRAWEETPVSFTDPAGGCPSSSGRRPTASTEQPLQWVAQPVPQM | not soluble
